Starred links: 1 amine or outer side, 2 acyl side, 3 side chain; linkers in the order of their positions; H or OH if unused. Non-standard residues stand in square brackets, D forms with d. No end group written: not given here. X1 = (2S,4S)‑4‑(4-ferrocenyl-1H-1,2,3-triazol-1-yl)pyrrolidine‑2‑carboxylic acid, O=C([C@@H]1C[C@H](n2cc(-[c-]3cccc3)nn2)CN1[*:1])[*:2].[Fe+2].c1cc[cH-]c1
Columns and labels:
HIV-1_(92UG037-08) gp120 = HIV-1_(92UG037-08) gp120 (HIV-1 (strain 92UG037-08, clade A)); assay: SPR
HIV-1_(SF162) gp120 = HIV-1_(SF162) gp120 (HIV-1 (strain SF162, clade B)); assay: SPR

Binder: RINNI[X1]WSEAMM-NH2 [HNG-156, ferrocene triazole peptide conjugate]
- Kd (HIV-1_(92UG037-08) gp120): 16.3 nM
- Kd (HIV-1_(SF162) gp120): 9 nM
